According to publication PMC9830914, “Differential effects of mutations of POPDC proteins on heteromeric interaction and membrane trafficking” (Acta Neuropathologica Communications, 2023):
Where a chain is given by its changes, count along the chain named. Blank lines part the entries; values can stand above or below the molecule they belong to.

Key:
POPDC1-VC155 (human) = POPDC1-VC155 (human) (UniProt Q8NE79); assay: split reporter (BiFC, NanoBiT); BiFC in HEK293 cells, split Venus VC155 on POPDC1 and VN155 on POPDC2; Venus signal normalised to co-transfected mRFP and to the wild-type pair (set to 1); settings: scale: relative to the wild-type pair
[1] = target: POPDC1 p.Q153X-VC155 (human) (UniProt Q8NE79); assay: as above; settings: scale: relative to the wild-type pair
POPDC1 p.S201F-VC155 = target: T1, POPDC1 p.S201F-VC155 (human, UniProt Q8NE79 1-360, p.S201F); assay: as above; settings: partners not purified
T1 construct: POPDC1 (BVES), human, full-length cDNA with the patient variant p.S201F; source: HEK293, transfected, in cells; not shown: split Venus VC155, C-terminal, kept
T1 sequence (looked up): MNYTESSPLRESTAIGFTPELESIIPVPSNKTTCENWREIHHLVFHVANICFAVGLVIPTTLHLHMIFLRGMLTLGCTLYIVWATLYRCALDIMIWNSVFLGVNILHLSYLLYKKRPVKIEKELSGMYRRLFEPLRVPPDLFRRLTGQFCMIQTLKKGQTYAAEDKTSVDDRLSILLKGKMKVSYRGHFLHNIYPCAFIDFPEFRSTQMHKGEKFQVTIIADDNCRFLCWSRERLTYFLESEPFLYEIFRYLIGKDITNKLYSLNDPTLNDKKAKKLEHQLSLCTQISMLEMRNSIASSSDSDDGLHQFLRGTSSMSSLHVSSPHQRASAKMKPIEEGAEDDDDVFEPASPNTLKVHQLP

[2] = target: the molecule itself; assay: SDS-PAGE and Western blot of oligomer bands; COS-7 cells lysed in 4 M urea and 10% SDS without a reducing agent; anti-GFP antibody detects complexes that hold POPDC1-CFP
[3] = target: the molecule itself; assay: FRET or BRET; type-1 quantitative NanoBRET in HEK293 cells; C-terminal NanoLuc and HaloTag (HaloTag-618 dye); expression ratios varied at constant total expression; curves compared to ideal curves for monomers, dimers and other stoichiometries

BiFC signal relative to the wild-type pair (POPDC1-VC155 (human)): 0.59
Molecule: POPDC2 p.W188X-VN155 (from UniProt Q9HBU9 1-187) (domain or fragment)

BiFC signal relative to the wild-type pair [1]: 0.248
BiFC signal relative to the wild-type pair (POPDC1 p.S201F-VC155): 0.43 relative to the wild-type pair (set to 1)
B1: POPDC2-VN155 (natural protein, human, UniProt Q9HBU9 1-364, looked up)
chain: MSANSSRVGQLLLQGSACIRWKQDVEGAVYHLANCLLLLGFMGGSGVYGCFYLFGFLSAGYLCCVLWGWFSACGLDIVLWSFLLAVVCLLQLAHLVYRLREDTLPEEFDLLYKTLCLPLQVPLQTYKEIVHCCEEQVLTLATEQTYAVEGETPINRLSLLLSGRVRVSQDGQFLHYIFPYQFMDSPEWESLQPSEEGVFQVTLTAETSCSYISWPRKSLHLLLTKERYISCLFSALLGYDISEKLYTLNDKLFAKFGLRFDIRLPSLYHVLGPTAADAGPESEKGDEEVCEPAVSPPQATPTSLQQTPPCSTPPATTNFPAPPTRARLSRPDSGILASRIPLQSYSQVISRGQAPLAPTHTPEL
notes: POPDC2, human, full-length wild-type cDNA; also called wild-type POPDC2 with split Venus VN155; source: HEK293, transfected, in cells; not shown: split Venus VN155, C-terminal, kept

B2: POPDC1-CFP (natural protein, human, UniProt Q8NE79 1-360, looked up)
chain: T1 sequence (looked up) with F201S
notes: POPDC1 (BVES), human, full length cDNA in pECFP-N1; printed molecular weight of POPDC1 41.5 kDa; also called POPDC1-ECFP; source: COS-7, transfected, in lysate (4 M urea, 10% SDS, no reducing agent); not shown: CFP, C-terminal, kept
stoichiometry N [2]: 2

B3: POPDC1 with C-terminal NanoLuc or HaloTag (NanoBRET constructs) (natural protein, human, UniProt Q8NE79 1-360, looked up)
chain: T1 sequence (looked up) with F201S
modifications: HaloTag-618 dye on the HaloTag copy
notes: POPDC1 (BVES), human cDNA cloned into pFC14K (HaloTag) or pFC32K (NanoLuc); Two differently tagged copies of one protein, written as one molecule: each copy carries only one of the two tags; With POPDC2-NL the HaloTag copy was used; also called POPDC1-NL; POPDC1-HT; source: HEK293, transiently transfected, in live cells; not shown: NanoLuc (on the copy POPDC1-NL), C-terminal, kept; HaloTag (on …)
stoichiometry N [3]: 2
